Laboratory results from patent publication US20230381229A1.

Columns and labels:
[1] = biological target: CD112R (Homo sapiens (Human)) (UniProt Q6DKI7); assay: flow cytometry, transfected HEK293 cells, 100 nM
[2] = biological target: human TIGIT (human); assay: flow cytometry, transfected HEK293 cells, 100 nM
[3] = biological target: T1, human CD96 (human) (UniProt P40200); assay: flow cytometry, transfected HEK293 cells, 100 nM
T1 sequence: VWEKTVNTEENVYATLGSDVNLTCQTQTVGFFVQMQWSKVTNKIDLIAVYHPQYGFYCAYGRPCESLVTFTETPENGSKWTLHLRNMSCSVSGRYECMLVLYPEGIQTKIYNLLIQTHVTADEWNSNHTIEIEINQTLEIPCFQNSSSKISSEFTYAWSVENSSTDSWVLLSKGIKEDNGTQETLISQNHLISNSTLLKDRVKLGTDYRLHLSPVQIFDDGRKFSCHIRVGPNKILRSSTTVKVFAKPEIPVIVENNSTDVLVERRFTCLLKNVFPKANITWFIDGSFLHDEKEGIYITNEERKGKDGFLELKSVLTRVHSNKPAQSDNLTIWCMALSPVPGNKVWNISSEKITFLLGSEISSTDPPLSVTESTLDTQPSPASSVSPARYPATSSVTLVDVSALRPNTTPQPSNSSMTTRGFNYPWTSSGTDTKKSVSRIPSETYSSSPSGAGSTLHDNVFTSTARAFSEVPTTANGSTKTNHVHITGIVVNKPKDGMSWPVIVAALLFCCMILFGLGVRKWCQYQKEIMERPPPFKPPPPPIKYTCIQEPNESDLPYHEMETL

[4] = biological target: T2, human CD226 (human); assay: flow cytometry, transfected HEK293 cells, 100 nM
T2 sequence: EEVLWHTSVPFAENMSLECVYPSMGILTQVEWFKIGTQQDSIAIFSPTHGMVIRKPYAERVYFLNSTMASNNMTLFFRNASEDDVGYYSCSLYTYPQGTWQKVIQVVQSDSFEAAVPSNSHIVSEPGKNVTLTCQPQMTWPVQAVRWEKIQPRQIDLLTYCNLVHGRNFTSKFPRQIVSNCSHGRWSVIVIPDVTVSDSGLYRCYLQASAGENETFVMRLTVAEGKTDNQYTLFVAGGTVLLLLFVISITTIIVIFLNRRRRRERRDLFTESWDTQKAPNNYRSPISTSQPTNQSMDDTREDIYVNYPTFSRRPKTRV

[5] = biological target: PD-1 expressed on cells (human); assay: flow cytometry, cells expressing PD-1
[6] = biological target: CD80 expressed on cells (Homo sapiens); assay: flow cytometry, cells expressing CD80
[7] = biological target: CD112R (Homo sapiens (Human)) (UniProt Q6DKI7)
[8] = biological target: human TIGIT (human)
[9] = biological target: human PD-1 (human)
[10] = biological target: T3, human TIGIT, full-length, expressed on transfected HEK293 cells (human); assay: flow cytometry, HEK293 transfectants, 100 nM
T3 sequence: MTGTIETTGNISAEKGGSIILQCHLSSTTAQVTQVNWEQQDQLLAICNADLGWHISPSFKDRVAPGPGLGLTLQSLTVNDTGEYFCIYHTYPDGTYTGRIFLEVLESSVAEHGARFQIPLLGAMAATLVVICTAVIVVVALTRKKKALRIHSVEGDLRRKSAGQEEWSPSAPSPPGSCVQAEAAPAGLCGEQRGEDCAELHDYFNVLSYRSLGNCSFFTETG

[11] = biological target: T4, human CD96, full-length, expressed on transfected HEK293 cells (human) (UniProt P40200); assay: flow cytometry, HEK293 transfectants, 100 nM
T4 sequence: T1 sequence

[12] = biological target: PD-1 expressed on cells (human); assay: flow cytometry, Jurkat/PD-1 cells
Target sequence in this assay (chain, as listed by the source): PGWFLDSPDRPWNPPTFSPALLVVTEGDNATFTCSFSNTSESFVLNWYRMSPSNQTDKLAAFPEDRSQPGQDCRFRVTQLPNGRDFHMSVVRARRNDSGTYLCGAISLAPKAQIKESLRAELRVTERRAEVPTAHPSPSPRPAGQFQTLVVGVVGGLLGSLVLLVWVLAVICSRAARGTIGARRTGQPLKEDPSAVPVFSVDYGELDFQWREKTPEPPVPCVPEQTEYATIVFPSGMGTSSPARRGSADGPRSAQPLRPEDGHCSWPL

[13] = biological target: PD-1-Fc (Homo sapiens); assay: ForteBio, PD-1-Fc
PD-1-Fc (Homo sapiens), sequence (chain, as listed by the source limits assumed): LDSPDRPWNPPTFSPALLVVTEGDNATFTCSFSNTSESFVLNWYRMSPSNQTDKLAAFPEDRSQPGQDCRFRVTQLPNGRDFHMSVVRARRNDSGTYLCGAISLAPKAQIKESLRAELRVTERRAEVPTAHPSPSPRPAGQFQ

CD155 IgV Fc, sequence (P15151 21-142): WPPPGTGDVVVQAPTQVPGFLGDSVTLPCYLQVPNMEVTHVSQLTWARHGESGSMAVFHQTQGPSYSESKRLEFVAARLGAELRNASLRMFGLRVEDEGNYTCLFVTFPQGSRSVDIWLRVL
CD112R (Homo sapiens (Human)), sequence (Q6DKI7 whole entry): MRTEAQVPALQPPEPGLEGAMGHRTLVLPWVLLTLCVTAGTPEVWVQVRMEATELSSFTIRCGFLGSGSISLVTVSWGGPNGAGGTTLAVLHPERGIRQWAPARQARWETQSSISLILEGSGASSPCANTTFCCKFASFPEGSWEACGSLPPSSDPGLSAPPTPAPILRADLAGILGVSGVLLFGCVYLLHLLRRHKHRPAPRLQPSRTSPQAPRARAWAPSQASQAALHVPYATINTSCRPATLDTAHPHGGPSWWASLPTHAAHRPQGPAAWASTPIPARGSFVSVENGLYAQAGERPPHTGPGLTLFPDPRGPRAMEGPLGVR
CD112 ECD-Fc (Fc fusion), sequence (chain): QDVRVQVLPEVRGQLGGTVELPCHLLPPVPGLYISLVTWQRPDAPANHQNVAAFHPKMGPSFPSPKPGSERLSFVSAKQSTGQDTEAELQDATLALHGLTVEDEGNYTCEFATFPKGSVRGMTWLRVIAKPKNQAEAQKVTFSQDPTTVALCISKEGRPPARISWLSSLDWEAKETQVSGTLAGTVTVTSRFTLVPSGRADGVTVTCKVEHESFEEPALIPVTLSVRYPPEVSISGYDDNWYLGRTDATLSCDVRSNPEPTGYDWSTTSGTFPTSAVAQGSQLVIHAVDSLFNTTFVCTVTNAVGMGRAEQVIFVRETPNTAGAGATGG
CTLA4-Fc (Fc fusion), sequence (chain): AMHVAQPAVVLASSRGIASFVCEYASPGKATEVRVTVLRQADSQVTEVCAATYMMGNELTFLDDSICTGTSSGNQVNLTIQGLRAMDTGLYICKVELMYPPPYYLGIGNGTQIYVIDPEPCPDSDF
human PD-1 (human), sequence (chain, as listed by the source limits assumed): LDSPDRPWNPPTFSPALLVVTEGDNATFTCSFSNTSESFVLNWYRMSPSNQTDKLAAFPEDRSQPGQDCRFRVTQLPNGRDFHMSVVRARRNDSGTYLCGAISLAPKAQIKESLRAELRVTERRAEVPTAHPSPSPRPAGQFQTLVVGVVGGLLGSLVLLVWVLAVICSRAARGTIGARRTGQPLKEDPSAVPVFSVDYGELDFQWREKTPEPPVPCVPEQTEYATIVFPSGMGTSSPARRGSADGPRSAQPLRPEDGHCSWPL

Substance | Fold Change Compared to WT PD-L1 [5] | MFI at 20 nM [6] | MFI at 20 nM [5] | other results
CD155 IgV Fc (from UniProt P15151) (Fc fusion) |  |  |  | Fold ↑ to WT ECD [1]: 1.65; MFI at 100 nM [1]: 2940; MFI at 100 nM [2]: 4690; MFI at 100 nM [3]: 3270; MFI at 100 nM [4]: 4690
variant PD-L1 ECD-Fc V93E, V129D (Fc fusion) | 0.4 | 150 |  | 
variant PD-L1 ECD-Fc G15A, V129D (Fc fusion) | 0.7 | 128 |  | 
Fc Control |  | 132 | 59 | RLU (IL-2-luciferase reporter) [7]: 624 RLU; RLU (IL-2-luciferase reporter) [8]: 624 RLU; RLU (IL-2-luciferase reporter) [9]: 624 RLU
variant PD-L1 ECD-Fc V129D, T150A (Fc fusion) | 0.6 | 142 |  | 
CD112 ECD-Fc (Fc fusion) |  |  |  | MFI at 100 nM [10]: 29200 MFI; MFI at 100 nM [11]: 1100 MFI
variant PD-L1 ECD-Fc I36T, I46V, D55G, M97L, K106E, K144E, T185A, R195G (Fc fusion) | 0 | 190 | 69 | 
variant PD-L1 ECD-Fc V129D, H202Q (Fc fusion) | 0.6 | 219 |  | Fold Change Compared to WT PD-L1 [6]: 1.6
variant PD-L1 ECD-Fc G15A, I36T, V129D (Fc fusion) | 0 | 136 | 114 | 
variant PD-L1 ECD-Fc I36T, M97L, A103V, Q155H (Fc fusion) | 0 | 128 | 120 | 
variant PD-L2 IgV-Fc H15Q, R76G, I85F (SEQ ID NO 685) (Fc fusion) |  |  |  | Fold increase over wildtype PD-L2 IgV-Fc [12]: 0.19; MFI at 50 nM [12]: 1890; Fortebio binding to PD-1-Fc Response Units (Response Units) [13]: -0.006
variant PD-L2 IgV-Fc H15Q, R76G, I85F (SEQ ID NO 680) (Fc fusion) |  |  |  | Fold increase over wildtype PD-L2 IgV-Fc [12]: 0.3; MFI at 50 nM [12]: 2940; Fortebio binding to PD-1-Fc Response Units (Response Units) [13]: -0.038

Continued, in another order:

Fold Change Compared to WT PD-L1 [5] | MFI at 20 nM [6] | MFI at 20 nM [5] | Substance | other results
1 | 152 |  | variant PD-L1 ECD-Fc V129D, P198T (Fc fusion) | 
0.7 | 143 |  | variant PD-L1 ECD-Fc M18V, I98L, L124S, P198T, L206F (Fc fusion) | 
0 |  | 125 | variant PD-L1 ECD-Fc G15A, I36T, V129D, R195G (Fc fusion) | 
 | 200000 | 59 | CTLA4-Fc (Fc fusion) | 
 |  | 830 | variant PD-L1 ECD-Fc K28I, S99G (Fc fusion) | 
0.1 | 155 | 190 | variant PD-L1 ECD-Fc L35P, I36S, M97L, K111E (Fc fusion) | 
0 |  | 69 | variant PD-L1 ECD-Fc M18V, M97L, F193S, R195G, E200K, H202Q (Fc fusion) | 
0 | 149 | 81 | variant PD-L1 ECD-Fc I36T, G52R, M97L, V112A, K144E, V175A, P198T (Fc fusion) | 
 |  | 112 | variant PD-L1 ECD-Fc G15A, I36T, M97L, K111E, H202Q (Fc fusion) | 
